Laboratory results from patent US9156883B2, “Binding molecules for human factor VIII and factor VIII-like proteins” (DYAX CORP., priority 1999, dated 2015).
Positions of bridges follow the written chain, without caps; N, C: chain ends. No end group written: not given here. *: point of attachment. NHNH2 = NN*

Tests used:
REFACTO® = target: T1, REFACTO® (Homo sapiens, UniProt P00451); assay: Comparative batch binding and elution of REFACTO® with regenerated immobilized ligands; settings: target REFACTO® 100 U/ml in modified Buffer 1
T1 construct: amino acids 1-743 and 1638 through 2332 of human factor VIII; purchased Genetics Institute, Inc. (Cambridge, Mass.)
T1 sequence (P00451 20-762): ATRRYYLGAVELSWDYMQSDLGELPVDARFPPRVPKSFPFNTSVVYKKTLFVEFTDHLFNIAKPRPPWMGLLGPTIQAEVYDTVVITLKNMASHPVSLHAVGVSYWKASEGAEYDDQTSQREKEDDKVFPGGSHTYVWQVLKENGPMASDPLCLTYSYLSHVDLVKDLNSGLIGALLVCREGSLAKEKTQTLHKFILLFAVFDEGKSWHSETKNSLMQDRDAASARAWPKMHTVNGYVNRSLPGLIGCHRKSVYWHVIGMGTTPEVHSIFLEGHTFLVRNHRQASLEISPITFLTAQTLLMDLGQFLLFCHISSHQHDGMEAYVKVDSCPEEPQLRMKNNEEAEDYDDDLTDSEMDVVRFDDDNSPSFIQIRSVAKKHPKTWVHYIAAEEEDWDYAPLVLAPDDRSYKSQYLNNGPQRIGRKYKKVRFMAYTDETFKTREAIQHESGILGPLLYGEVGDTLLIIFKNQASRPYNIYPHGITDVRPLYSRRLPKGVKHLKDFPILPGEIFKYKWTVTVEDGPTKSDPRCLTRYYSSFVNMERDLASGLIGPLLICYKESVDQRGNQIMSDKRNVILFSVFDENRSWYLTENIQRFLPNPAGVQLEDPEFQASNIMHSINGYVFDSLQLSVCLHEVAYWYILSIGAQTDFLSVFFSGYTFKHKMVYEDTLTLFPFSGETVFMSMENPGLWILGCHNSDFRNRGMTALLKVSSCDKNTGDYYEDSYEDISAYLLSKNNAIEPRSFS
T1 sequence (P00451 1657-2351): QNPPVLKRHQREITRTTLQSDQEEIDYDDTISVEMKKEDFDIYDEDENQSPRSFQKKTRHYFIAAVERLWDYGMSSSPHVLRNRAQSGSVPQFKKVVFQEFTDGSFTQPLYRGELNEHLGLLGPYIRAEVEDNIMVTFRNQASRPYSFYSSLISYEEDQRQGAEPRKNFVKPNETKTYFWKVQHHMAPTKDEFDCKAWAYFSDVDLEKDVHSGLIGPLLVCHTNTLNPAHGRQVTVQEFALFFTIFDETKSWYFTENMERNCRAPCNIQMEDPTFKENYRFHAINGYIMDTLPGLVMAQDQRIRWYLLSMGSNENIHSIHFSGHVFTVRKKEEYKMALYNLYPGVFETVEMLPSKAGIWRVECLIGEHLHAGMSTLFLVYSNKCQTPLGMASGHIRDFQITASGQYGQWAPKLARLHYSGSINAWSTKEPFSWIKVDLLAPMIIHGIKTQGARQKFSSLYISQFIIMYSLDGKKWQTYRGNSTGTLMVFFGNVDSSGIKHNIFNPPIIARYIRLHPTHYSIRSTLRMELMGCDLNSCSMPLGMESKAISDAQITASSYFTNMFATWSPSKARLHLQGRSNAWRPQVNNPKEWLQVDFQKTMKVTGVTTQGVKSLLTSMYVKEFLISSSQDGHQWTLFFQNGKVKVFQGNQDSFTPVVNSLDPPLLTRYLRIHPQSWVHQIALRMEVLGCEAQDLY
Description: A commercial ELISA kit (IMUBIND fVIII ELISA kit, Product #884, American, Inc., Greenwich, Conn.) developed to detect factor VIII was used according to the manufacturer's specifications in order to detect both the REFACTO® and the nhfVIII targets. The kit employs a sandwich ELISA assay in which the target is captured by an immobilized monoclonal antibody and the captured target is detected with a second monoclonal antibody-horseradish peroxidase (HRP) conjugate. Addition of the peroxidase substrate and its subsequent reaction with the HRP produces a blue color (detected at 630 nm) which changes to yellow (detected at 450 nm) on addition of the 0.5N sulfuric acid stop solution. Color response is calibrated with factor VIII standards provided by the manufacturer.
Following the pH 2 washes, the beads were washed once in PBS containing 0.05% azide and stored at 4° C.
A sample of nhfVIII was diluted to a final concentration of 100 U/ml by addition of 2.32 ml H2O, 180 μl 1M NH4OAc, pH 6.3 (to 72 mM), and 1 μl Tween 80 (to 0.04%). REFACTO® stock solution was diluted to 100 U/ml in a modified Buffer 1, in which the NaCl concentration was reduced from […] to 330 mM.
Immobilized peptides were tested for binding to nhFVIII in comparison with REFACTO®. […] Next, nhfVIII and REFACTO® solutions were mixed with regenerated affinity beads bearing the CS-454, CS-456, and CS-458 ligands in a comparative batch purification procedure.

[1] = target: T2, factor VIII-like polypeptide (REFACTO®) (Homo sapiens, UniProt P00451); assay: Affinity chromatography capture and elution of REFACTO® on immobilized peptide columns; format: binding; settings: bound material eluted in the presence of ethylene glycol
T2 construct: amino acids 1-743 and 1638 through 2332 of human factor VIII; purchased Genetics Institute, Inc. (Cambridge, Mass.)
T2 sequence (P00451 20-762): T1 sequence (P00451 20-762)
T2 sequence (P00451 1657-2351): T1 sequence (P00451 1657-2351)
Protocol: The candidate ligands were immobilized onto a formyl-substituted ethylene glycol-methacrylate chromatographic resin (Toyopearl Formyl 650-M, pore size of ˜1000 Å; TosoHaas, Montgomeryville, Pa.). The hydrazide-containing peptides were immobilized by facilitating hydrazone bond formation, the GI-1 and -2 peptides were immobilized via reductive amination using NaCNBH3. The amount of polypeptide immobilized on the solid support was determined by quantifying the amount of free polypeptide remaining in solution. The amount of ligand immobilized per ml of resin was in the range of 0.7-1.5 μmol for the hydrazine-immobilized peptides.
The nine peptides were evaluated by affinity chromatography for their ability to capture the REFACTO® described in Example I, under specific binding and release conditions.
The factor VIII-like polypeptide (REFACTO®) was diluted in SP Buffer to a concentration of 150 μg/ml. The affinity resins (˜350 μl) were each packed into glass columns, and approximately 150 μg of the factor VIII target was applied to the prepared affinity columns at a flow rate of 200 μl/minute (linear velocity of 170 cm/hour). […] Fractions were collected and the mass and activity of recovered factor VIII-like polypeptide was determined by reversed-phase HPLC and by enzymatic assay.
For the mass determination, a standard curve with REFACTO® (0-200 μg) was generated and the amount present in each fraction was calculated according to techniques well known in the art. Reversed-phase HPLC in the presence of 20 mM EDTA was used to disrupt the REFACTO® molecule into its component subunits, which were eluted with a gradient of acetonitrile/0.01% TFA. The activity assay was a Factor IX-, X-based assay. The results for each affinity resin are set forth below (Table 6).

| % of Total Recovered in: Eluate (REFACTO®) | % of Total Recovered in: Unbound (REFACTO®) | % of Total Recovered in: Wash (REFACTO®) | Substance | capture of the factor VIII target by the affinity resin (in words) [1] |
| --- | --- | --- | --- | --- |
| 27% | 59% | 14% | AEGTGDFCWVFAFDHCHDPGPEGGGS-NHNH2 (disulfide 8-16 (inferred)) [CS-458] |  |
|  |  |  | AEGTGDFGCSWLFPCPFDPGPEGGGS-NHNH2 (disulfide 9-15 (inferred)) [CS-456] | captured virtually all of the factor VIII target applied |
|  |  |  | AEGTGDHLCGAWFRPCDADPGPEGGGS-NHNH2 (disulfide 9-16 (inferred)) [CS-454] | captured virtually all of the factor VIII target applied |
